Experimental data: publication PMC2583301
Values belong to the substance of their own block, whether it stands above or below them.

Tests used:
[1] = biological target: H2A refolded in the absence of H2B (Xenopus laevis) (UniProt P06897); assay: AUC
[2] = biological target: yNap1 C200A/C249A/C272A labelled with Alexa dye at Cys-414 (yNap1m*) (yeast) (UniProt P25293); assay: other fluorescence titration
[3] = biological target: H2A/H2B(T112C) dimer, H2B labelled with Alexa dye (Xenopus laevis) (UniProt P06897); assay: other fluorescence titration

yeast nucleosome assembly protein 1 (yNap1), wild type, sequence (P25293 whole entry): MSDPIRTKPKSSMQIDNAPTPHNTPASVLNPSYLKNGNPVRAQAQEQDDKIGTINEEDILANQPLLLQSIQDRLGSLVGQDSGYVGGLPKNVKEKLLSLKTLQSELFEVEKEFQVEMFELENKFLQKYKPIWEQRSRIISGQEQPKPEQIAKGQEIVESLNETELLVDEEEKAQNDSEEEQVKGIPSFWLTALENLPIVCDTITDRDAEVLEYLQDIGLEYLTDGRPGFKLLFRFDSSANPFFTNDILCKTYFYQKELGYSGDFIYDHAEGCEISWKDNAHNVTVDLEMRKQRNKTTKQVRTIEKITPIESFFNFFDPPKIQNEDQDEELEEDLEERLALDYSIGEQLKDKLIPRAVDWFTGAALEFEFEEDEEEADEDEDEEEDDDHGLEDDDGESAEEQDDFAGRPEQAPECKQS
yNap1 C200A/C249A/C272A labelled with Alexa dye at Cys-414 (yNap1m*) (yeast), sequence (P25293 whole entry C200A/C249A/C272A): as the sequence (P25293 whole entry) above, with C200A, C249A, C272A counted along it

stoichiometry N [1]: 2
Substance: H2A refolded in the absence of H2B (from UniProt P06897 1-130) (natural protein)

stoichiometry N (H2A/H2B dimer per yNap1 monomer) [2]: 1
Substance: H2A/H2B dimer (major type, wild type) (from UniProt P06897;P02281) (complex)

Kd [2]: 2.1 nM
Substance: Tailless H2A/H2B dimer (from UniProt P06897 15-119) (complex)

Kd [3]: 1.3 nM
Kd app (yNap1 counted as dimer) [3]: 0.7 nM
Substance: yeast nucleosome assembly protein 1 (yNap1), wild type (from UniProt P25293 1-417) (natural protein)
